From the supplement of paper PMC7877785
± gives the uncertainty stated by the source.

Experiment: self-splicing fitness, log relative to wild type (ln ratio); higher = more splicing; Tetrahymena group I intron in knt gene, E. coli kanamycin selection, DiMSum; sequences stand for … in CUCUCU…GGAGGGAAAAGUUAUCAGGCAUGCACCUGGUAGCUAGUCUUUAAACCAAUAGAUUGCAUCGGUUUAAAAGGCAAGACCGUCAAAUUGCGGGAAAGGGGUCAACAGCCGUUCAGUACCAAGUCUCAGGGGAAACUUUGAGAUGGCCUUGCAAAGGGUAUGGUAAUAAGCUGACGGACAUGGUCCUAACCACGCAGCCAAGUCCUAAGUCAACAGAUCUUCUGUUGAUAUGGAUGCAGUUCACAGACUAAAUGUCGGUCGGGGAAGAUGUAUUCUUCUCAUAAGAUAUAGUCGGACCUCUCCUUAAUGGGAGCUAGCGGAUGAAGUGAUGCAACACUGGAGCCGCUGGGAACUAAUUUGUAUGCGAAAGUAUAUUGAUUAGUUUUGGAGUACUCGUGGUCG
Outline: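 Library with all eight P1ex-region intron nucleotides randomised, intron inside the knt kanamycin-resistance gene on pET-22b(+), in E. coli BL21(DE3). Cells grew overnight at 37°C or 30°C on LB agar with or without 25 μg/mL kanamycin (plus 100 μg/mL carbenicillin, 50 μM IPTG, 0.2% rhamnose), in six replicate transformations. Pooled colonies were amplicon-sequenced on Illumina HiSeq 2500. DiMSum fitness is the error-weighted combination of wild-type-normalised replicate fold changes, kanamycin versus none.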

Sequence	self-splicing fitness (ln) (30 °C)	self-splicing fitness (ln) (37 °C)
GCCGAGCAAUAUUACGCGCA	-1.42 ± 0.19	-0.221 ± 0.14
GCCGAGCAAUAUUACGCGGU	-3.47 ± 0.18	-3.36 ± 0.42
GCCGAGCAAUAUUACGCGUA	-0.983 ± 0.069	-0.591 ± 0.066
GCCGAGCAAUAUUACGCGUU	-1.62 ± 0.076	-0.778 ± 0.095
GCCGAGCAAUAUUACGCUGA	-1.88 ± 0.17	-0.952 ± 0.13
GCCGAGCAAUAUUACGGAUG	-1.38 ± 0.06	-0.937 ± 0.072
GCCGAGCAAUAUUACGGCCA	-1.6 ± 0.11	-1.52 ± 0.12
GCCGAGCAAUAUUACGGGAG	-3.67 ± 0.24	-2.18 ± 0.24
GCCGAGCAAUAUUACGGUGG	-3.52 ± 0.16	-3.27 ± 0.23
GCCGAGCAAUAUUACGUCGU	-0.646 ± 0.081	-0.197 ± 0.1
GCCGAGCAAUAUUACGUGAA	-1.74 ± 0.076	-0.417 ± 0.092
GCCUAGCAAUAUUACGAAGG	-3.05 ± 0.17	-2.65 ± 0.3
GCCUAGCAAUAUUACGACAC	-1.06 ± 0.21	-0.38 ± 0.27
GCCUAGCAAUAUUACGACAU	-2.109 ± 0.015	-1.02 ± 0.033
GCCUAGCAAUAUUACGAGCU	-1.03 ± 0.14	-1.51 ± 0.14
GCCUAGCAAUAUUACGAUAC	-2.39 ± 0.11	-0.543 ± 0.1
GCCUAGCAAUAUUACGCAAG	-3.71 ± 0.47	
GCCUAGCAAUAUUACGCAGU	-1.77 ± 0.13	-0.206 ± 0.12
GCCUAGCAAUAUUACGCAUC	-0.219 ± 0.066	0.571 ± 0.091
GCCUAGCAAUAUUACGCAUG	-4.28 ± 0.36	-1.67 ± 0.15
GCCUAGCAAUAUUACGCCCU	-0.974 ± 0.097	0.335 ± 0.13
GCCUAGCAAUAUUACGCCGC	-2.48 ± 0.36	-1.5 ± 0.34
GCCUAGCAAUAUUACGCCGG		-3.09 ± 0.37
GCCUAGCAAUAUUACGGAUA	-1.01 ± 0.17	-0.705 ± 0.13
GCCUAGCAAUAUUACGGCAC	-1.31 ± 0.17	-0.195 ± 0.14
GCCUAGCAAUAUUACGGCGG	-3.45 ± 0.24	-2.44 ± 0.35

Sequence	self-splicing fitness (ln) (30 °C)	self-splicing fitness (ln) (37 °C)
GCCUAGCAAUAUUACGGCUU	-3.8 ± 0.22	-1.08 ± 0.16
GCCUAGCAAUAUUACGGGCC	-4.2 ± 0.26	-3.41 ± 0.39
GCCUAGCAAUAUUACGGUAC	-2.66 ± 0.15	-0.822 ± 0.13
GCCUAGCAAUAUUACGUGGC	-3.15 ± 0.32	-1.6 ± 0.33
GCCUAGCAAUAUUACGUUCC	-1.1 ± 0.17	0.341 ± 0.19
GCGAAGCAAUAUUACGAAAG	-4.38 ± 0.4	-1.14 ± 0.18
GCGAAGCAAUAUUACGAGAG	-3.95 ± 0.34	-1.91 ± 0.2
GCGAAGCAAUAUUACGAGUU	-3.19 ± 0.2	-2.16 ± 0.28
GCGAAGCAAUAUUACGAUGU	-2.82 ± 0.15	-1.42 ± 0.12
GCGAAGCAAUAUUACGCCAA		-1.82 ± 0.39
GCGAAGCAAUAUUACGCCGG	-1.91 ± 0.47	-0.944 ± 0.47
GCGAAGCAAUAUUACGCCUC	-2.7 ± 0.42	
GCGAAGCAAUAUUACGCUUG	-1.45 ± 0.26	-1.56 ± 0.35
GCGAAGCAAUAUUACGGACA	-0.834 ± 0.13	-0.85 ± 0.13
GCGAAGCAAUAUUACGGAUU	-1.33 ± 0.13	-1.17 ± 0.15
GCGAAGCAAUAUUACGGUAC	-2.89 ± 0.17	-1.2 ± 0.15
GCGAAGCAAUAUUACGUAGU	-3.8 ± 0.34	-2.13 ± 0.18
GCGAAGCAAUAUUACGUAUC	-3.34 ± 0.3	-0.83 ± 0.14
GCGAAGCAAUAUUACGUCUU	-2.56 ± 0.15	-2.06 ± 0.13
GCGCAGCAAUAUUACGAAAU	-0.982 ± 0.075	-0.192 ± 0.095
GCGCAGCAAUAUUACGAACU	0.116 ± 0.11	0.476 ± 0.13
GCGCAGCAAUAUUACGAAGA	-1.64 ± 0.13	-0.808 ± 0.12
GCGCAGCAAUAUUACGACGU	-1.69 ± 0.091	-1.13 ± 0.13
GCGCAGCAAUAUUACGACUA	-0.643 ± 0.12	0.154 ± 0.11
GCGCAGCAAUAUUACGAGAU	-1.85 ± 0.089	-0.7 ± 0.11
GCGCAGCAAUAUUACGAUAC	-1.4 ± 0.081	-1.49 ± 0.11

Sequence	self-splicing fitness (ln) (30 °C)	self-splicing fitness (ln) (37 °C)
GCGCAGCAAUAUUACGCAUU	-1.4 ± 0.077	-0.154 ± 0.1
GCGCAGCAAUAUUACGCGCC	-3.43 ± 0.26	-2.41 ± 0.39
GCGCAGCAAUAUUACGCGCU		-1.41 ± 0.28
GCGCAGCAAUAUUACGGCAC	-0.436 ± 0.11	-0.634 ± 0.13
GCGCAGCAAUAUUACGGCAG	-3.47 ± 0.15	-2.85 ± 0.19
GCGCAGCAAUAUUACGGCUA	-0.44 ± 0.092	0.0852 ± 0.097
GCGCAGCAAUAUUACGGGUU	-1.71 ± 0.042	-0.67 ± 0.053
GCGCAGCAAUAUUACGGUAU	-0.825 ± 0.039	-0.0516 ± 0.054
GCGCAGCAAUAUUACGUACU	-1.32 ± 0.072	-0.505 ± 0.092
GCGCAGCAAUAUUACGUCCU	-0.435 ± 0.12	0.126 ± 0.14
GCGCAGCAAUAUUACGUCGC	-2.27 ± 0.14	-2.2 ± 0.27
GCGCAGCAAUAUUACGUUAC	-2.71 ± 0.14	-1.12 ± 0.14
GCGGAGCAAUAUUACGAACA	-2.71 ± 0.45	-2.78 ± 0.43
GCGGAGCAAUAUUACGACGG	-2.27 ± 0.19	-1.13 ± 0.2
GCGGAGCAAUAUUACGAGUU	-3.16 ± 0.31	-1.91 ± 0.25
GCGGAGCAAUAUUACGAUAG	-2.96 ± 0.38	-2.67 ± 0.44
GCGGAGCAAUAUUACGAUAU	-2.17 ± 0.14	-2.02 ± 0.18
GCGGAGCAAUAUUACGCAAG	-2.73 ± 0.38	-2.3 ± 0.31
GCGGAGCAAUAUUACGCAAU	-3.51 ± 0.43	
GCGGAGCAAUAUUACGCGAA		-0.648 ± 0.23
GCGGAGCAAUAUUACGCGCU	-1.88 ± 0.4	
GCGGAGCAAUAUUACGCGGU	-1.68 ± 0.44	
GCGGAGCAAUAUUACGCUUC	-2.09 ± 0.38	
GCGGAGCAAUAUUACGCUUU	-3.1 ± 0.31	-3.21 ± 0.28
GCGGAGCAAUAUUACGGACC	-1.77 ± 0.34	
GCGGAGCAAUAUUACGGACG	-3.15 ± 0.47	-2.33 ± 0.42
